# Reference: a protein production outcome set (Wang et al. 2014)
# Experiment: label from the status in PepcDB records
row,Sequence,protein production
1,MTATIPPLTPTVTPSNPDRPIADLKLQDIIKTLPKECFEKKASKAWASVLITLGAIAVGYLGIIYLPWYCLPITWIWTGTALTGAFVVGHDCGHRSFAKKRWVNDLVGHIAFAPLIYPFHSWRLLHDHHHLHTNKIEVDNAWDPWSVEAFQASPAIVRLFYRAIRGPFWWTGSIFHWSLMHFKLSNFAQRDRNKVKLSIAVVFLFAAIAFPALIITTGVWGFVKFWLMPWLVYHFWMSTFTIVHHTIPEIRFRPAADWSAAEAQLNGTVHCDYPRWVEVLCHDINVHIPHHLSVAIPSYNLRLAHGSLKENWGPFLYERTFNWQLMQQISGQCHLYDPEHGYRTFGSLKKV,failed
2,MVGRRVSPALTKDDAHSYIIAVKETFHDEPTKYQEFIKLLNGVCDHRVDKYSVIARVEELMKDHQDLLLGFSVFLPPVSVEDFINKLKSKFVHLQTRFQSLDTHVVGAIRGLMKMFKEGKMSVKEVQEEVIDVLFYHEDLIEDFLRFFTKNPVSTASLLLQL,failed
3,MSYTPMSDLGQQGLFDITRTLLQQPDLASLCEALSQLVKRSALADNAAIVLWQAQTQRASYYASREKDTPIKYEDETVLAHGPVRSILSRPDTLHCSYEEFCETWPQLAAGGLYPKFGHYCLMPLAAGGHIFGGCEFIRYDER,failed
4,MDDSKSSYKLGLFVVSALVSLFVVLFILGGRSLFEPKIIVETYFDESVSGLEVGAPVRFRGITAGEVVSIELSDALYEAAVPRENRKSYVVVRSEITGAKRTIEEWNRSIEISIERGLRATTQLAGITGQQYLSFDYTSMDEGLSFNWKPNYPYVPSTKSSAGKIVSGIQSLIARLDEADINTLVANINMLIETLNQSISALDADALNAQLLALLINSNQMVKSVDGVISDPEVKEIVSSLAQISKSLNSSLKDKGDINKLIKHLDRAAVRLDVIMADNQSDINYVIKDLRVTVENLKSFSETLKNQPSSIIFSSEPEKLKIN,failed
5,MLDPARGYDLIGDVHGCAHTLEHLLELLGYRLQAGVWRHPERIAIFLGDIIDRGPRIRESLHIVRDMVQAGQAYCIMGNHEFNALGWMTPALPESGHLFVREHTPRHARLIGETLAQFEAYPDEWNEFVNWFYELPLYIDAGRFRVVHACWDATLIDPLRGLHGTGCIDRHFVQASAVPGSFASNVFNRLLRGTDMRLPHGLTLTGGDGLTREFFRTKFWEDNPQTYGDVVFQPDALPEGVAKTPLSTSEKNALLRYGSNEPLLFVGHYWRSGIPAPIRPNLACLDYSAVLYGKLVAYRLDQETHVDPDKFVWVDVQRPEVSP,failed
6,MAQQFKDYFSEKSDVYRSYRPGYPTELFAWLAGLPARRDAALDCGCGTGQASVALAEHFARVYAVDPSAGQIKSATPHKRVEYRVAPAEETGLPDASVDLVIAAQALHWFDFSRFYAEVRRVARGGAVFAAFTYGLLAIDDEIDRIIGRFYRDVIGPYWPPERAHVDAGYRTLPFPFAEIETPTFAMKAEWDLGHLMGYFETWSAVKEYRRLRGDDPLELVAGDLATAWGDPALVRQVSWPLVLRAGRIE,failed
7,MGRLSVAPLAQLNRLRVRLSLVFVLFLLLVIGLGAFSINRLSAFHNVAAEISGRWLLSNRIAGDLNNSISDFRATEGELLTARRGKDRGRAEGSLAVLDEEIADAKRRYETIEHDPIELDLYRQFSEQWRAYRELANRVLVLSQRDDKTDAIALYYQESRRAFTVANATLATLTERNVTGANEATQAEAVAYRHARDLIVNAIIVAALLMIAGVLYFVTAVTNPIAELVDRMHRISDNETEIDIPSTERPDEVGEIARAVVRFRDNTVALAQSRATLAEQARTLEITLANERRMAELQRNFVSMVSHEFRTPLTVIDGYAQRLSHIKPPLSLEAVQDRSSRIRAAVRRMTALIEDMLGASQVLDLATPGAFQRTEFSLHLLVHEVCEMHRESSPDAQIVEQWHADVPEVFHGDARLLFQAVSNLIGNAVKYSPPKTPVSVDVSMESGAILICVADQGIGIPEKDLGHVFERYVRGANVTGTAGAGVGLYIVRLAAELHGGTVSVRSAEGTGSRFLLRLPEAPAPAPLSA,failed
8,MAVEEVIEMQGLSLDPTSHRVMAGEEPLEMGPTEFKLLHFFMTHPERVYSREQLLNHVWGTNVYVEDRTVDVHIRRLRKALEPGGHDRMVQTVRGTGYRFSTRF,not failed
9,MSRGGFCQTYFAVDECQSPPVPYVVQKLHDNEQLLDSFQQKAQYIEQLSQNSQLPTLLAYFRDQDNYYFVQEFIAGASLAQVVQEEGAFHETQVWQLLTNLLPILKLMSDRQLIHGDIKPENIIRQLTPDSTNLVLVDFGHVQIVSRTDQITDVQGVGSPEYAAPEQITGQAVFASDLYSLGVTCIHLLTLVSPFDLFDIANDCWVWQQYLTTKISDRLTKILNKLIQKSVHQRFQSADEVMQVMGIEGKILHYPPPPSPWQCLHTLTGYSTNSLAISPDGNKLASGGDDKIIRLWELNTQKLLACFSGHSQAVTSVSFSPQGEILATASDDKTIKLWHLPTSSEVFTLNGHTNPVKSVSFSPNGQILASGSWDKQVKLWDVTTGKEIYALKAHQLQVSAVAFSPQGEILASASFDRTIRLWQITQNHPRYTLIKTLSGHTRAVLAIAFSPDGKILATGSDDNTIKLWDINTGQLIATLLGHSWSVVAVTFTADNKTLISASWDKTIKLWKVSTTEEIVTLASHLDSVCAVAVNPVTQVIASSSRDKTIKLWQLVIQQN,failed
10,MEEEMKKKVSRGELGGEAQNCPRCESPNTKFCYYNNYSLSQPRYFCKSCRRYWTKGGTLRNVPVGGGCRRNKRSSSSAFSKNNNNKSINFHTDPLQNPLITGMPPSSFGYDHSIDLNLAFATLQKHHLSSQATTPSFGFGGDLSIYGNSTNDVGIFGGQNGTYNNSLCYGFMSGNGNNNQNEIKMASTLGMSLEGNERKQENVNNNNNNSENPSKVFWGFPWQMTGDSAGVVPEIDPGRESWNGMVSSWNNGLLNTPLV,not failed
11,MDISGHPKTRTRTIFDEVDEPVWFCCVLPIWVGEEMASGWGITGNKGRCYDFWMDFSECMSHCREPKDCTLLREDYLECLHHSKEFQRRNRIYKEEQRKLRAASRKGEEAGDGTHNHH,failed
12,MQNCATGMQMDWISLLKAQQADFLLRVKKPKTYDLSLLESQVKGCHSEIMAFWGEPFAKIQEVSRRQAEILAKNPPPIPPEYPEPPDWTIPFPIHFQQQAEDYFLREQIVDRLIVERLGKLLKKLPQDTVKNMVLDDEGNLRGESKFTYLLADNPKISVQVYVADGESFNGIKKDKIKWSVTQEDLKNHQVLIFLCLFYPSTGKLGYEKQAVVAGFLPTSHIAVTEPKLYFTPSHLLYAGGLSWYLESLTAKKEAKLDFLPVVIERTIPETIQTVPSEHPRKEIIGDWECWQTLRGHMRGINCLSFSSGCENGLPMLASGSRGETKLWDLNQGELIDTLSEYPWIVSGLVDEVNSLAFSADGQMLVSGGADSTIKIWHTGALDLIDILHKHNGIVRCAAFTPDGQMLATGGDDRRILFWDLMHRQVKAILSLDDTAAHSLVLSRDGQTLVTGSYRKIKVWQTSGSWFGKNLKDAQPLHTLMGHGHIVRSLAMSKDGQLLISGSWDQTIKIWHLATGRLIRTLKGHTDKVYAIALSPDEQIIASGSSDQTIKLWHLETGELLATFTGHTDIVTALTFTTSGEMLVSGSLDKTIKLWQRS,failed
13,SQGDCSYSRTALYDLLGVPSTATQAQIKAAYYRQCFLYHPDRNSGSAEAAERFTRISQAYVVLGSATLRRKYDRGLLSDEDLRGPG,not failed
14,MGWHCVFFQMDLRYCSVQTLARTHQVMRELVQASAFVELNRFFDRLEAQWRQAPPGEFPAYLAAIDGHMLLDQENQGDRALSQVLRAWIDACPRAYHPQVVMGMHCFHRACQVQVDGPRNAARLLAVAQICESATAHLLRAMDRSAHPVAAAIGMLRISAQFHEPGWLLQLFQGEPARFRPSAHADVEVQEAAAPLLVRHGLLPLAELPQSLPRYLGKRVDHENEDPRYYWLRHALIARPGCFEAIQALAVYLLPRWGGSLDAFELLVNGPLCATWDERLRNALRWMAVEGRLKLPQADKVQAVADWQHVFEDWSQRPLRPRERAVVLAWRGALRSRVSGDHAGAMRDFGASLACNADLGAIRAMGVPFRCLAELILRDGMADEKQLLHGAIERLCDGRSHAAACALRAVGHRFGLWALPRSAEQARLWLQRAVSRQCAGQAPGFEVLEVARLLWAANRHEVACYLYERCAELNLPGAALALYELHHGGLANTPAHYLDDEAAGYWLQRAVEAGSRQAKYNLACLRMDGDEDLNERSAMLAVRRLLVDALGNGQTNACARLHLGILLRRFGEAQERSEAVAYLLSLVEHPDPWLAGRASAELGLAWMQGRGTRKQSRFAAIQWVNRAASLQPRDSAIGDIQAQILNSHSRVKTLFTQCGAALFRGTLHASELPPKQAFTHAESLRVKPASDGLRRAHKPRLSGPMQG,failed
